Measurements taken from publication PMC4614383, “Structural insights into the cooperative remodeling of membranes by amphiphysin/BIN1” (Scientific Reports, 2015).

Target: the molecule itself
Assay: cryo-EM 2D class averages and power spectra; 2D classification (Relion) of segments of tubes remodeled by N-BAR, N-BAR-deltaH0 or FL; liposomes 2POPG:1POPE; periodic spacings read from the power spectra; BAR dimers to a lattice on the membrane

B1: full length Drosophila amphiphysin/BIN1 (FL, residues 1-602) (natural protein, UniProt Q7KLE5 1-602, looked up)
chain: MTENKGIMLAKSVQKHAGRAKEKILQNLGKVDRTADEIFDDHLNNFNRQQASANRLQKEFNNYIRCVRAAQAASKTLMDSVCEIYEPQWSGYDALQAQTGASESLWADFAHKLGDQVLIPLNTYTGQFPEMKKKVEKRNRKLIDYDGQRHSFQNLQANANKRKDDVKLTKGREQLEEARRTYEILNTELHDELPALYDSRILFLVTNLQTLFATEQVFHNETAKIYSELEAIVDKLATESQRGSNTLRKQTSNPIKTSSPVQSPVNKLNNANINSNYQNQITTNGGSSLANSPTSTSSSLQEPRFDSVSSTPEPRPESPAAALVSATPSSPVENGVTTKSLERPELSGLNASAKATTTTQTSPTEDKAVVSEAVKPSETEGAAVAASVTPAPPATPAQINGNNNEPSIVKEGGKQPKELPSTTSNAEAAAEAAANNGNSIEEHKQKKLGNDTTVTATETVTVTQHSVTSTDTDNIVTISDTNTDTDTKTSTGTSQKGRPVPVVNRHSVNNLNKNPFEDDDERIYEVPADANTADLPPGVLYRVKATYGYAKEDVDELSFEIGDLIRVIEYDDPEDQEEGWLMGQKEGTNEKGLFPANFTRPI
notes: amphiphysin/BIN1, Drosophila, full length, residues 1-602; Cloned either with a 3C-cleavable hexahistidine tag or a SenP2-cleavable sumo-hexahistidine tag; source: E. coli BL21 gold, purified (His-Trap, anion exchange, SEC)
binding result: binds
